Laboratory results published in paper PMC13083928, “ALS mutations disrupt self-association between the ubiquilin STI1 hydrophobic groove and internal placeholder sequences” (The EMBO Journal, 2026).

Assays:
[1] = target: 3xHA-Sec61β soluble domain-Omp25 TMD-3F4 (single substrate); details: 3 μM recombinant 3xFLAG-UBQLN2 variants; parent: est. 49; read off a plot
[2] = target: the molecule itself; assay: crystal structure; STI1-FrzS-TMD fusion construct; hanging-drop vapor diffusion at 4 °C, 2.5% MPD, 100 mM Tris pH 8.5; 1.98 Å

Row | Molecule | response (Elution / Input) [1] | binding result [2]
1 | 3xFLAG-UBQLN2 (wild type), recombinant (from UniProt Q9UHD9) M446R | 57 | –
2 | 3xFLAG-UBQLN2 (wild type), recombinant (from UniProt Q9UHD9) P440L | 54 | –
3 | MMIALGVACAIALAIAAVYF (variant of the VAMP2 TMD; Written as a molecule of its own because it is joined with the STI1 domain on one chain for the structure; in the experiment it was part of m1; source: part of the STI1-FrzS-TMD fusion; E. coli BL21 DE3 pRIL, purified (Ni-NTA, SEC)) [variant of the VAMP2 TMD, as it stands in the crystallization construct] | – | binds
